B1: 3xFlag-UBL3 (wild-type ubiquitin-like 3/membrane-anchored Ub-fold protein) [not stated] / TUBB4A [human (endogenous in MDA-MB-231)] (parent)
chain 1: MSSNVPADMINLRLILVSGKTKEFLFSPNDSASDIAKHVYDNWPMDWEEEQVSSPNILRLIYQGRFLHGNVTLGALKLPFGKTTVMHLVARETLPEPNSQGQRNREKTGESNCCVIL
chain 2: MREIVHLQAGQCGNQIGAKFWEVISDEHGIDPTGTYHGDSDLQLERINVYYNEATGGNYVPRAVLVDLEPGTMDSVRSGPFGQIFRPDNFVFGQSGAGNNWAKGHYTEGAELVDAVLDVVRKEAESCDCLQGFQLTHSLGGGTGSGMGTLLISKIREEFPDRIMNTFSVVPSPKVSDTVVEPYNATLSVHQLVENTDETYCIDNEALYDICFRTLKLTTPTYGDLNHLVSATMSGVTTCLRFPGQLNADLRKLAVNMVPFPRLHFFMPGFAPLTSRGSQQYRALTVPELTQQMFDAKNMMAACDPRHGRYLTVAAVFRGRMSMKEVDEQMLSVQSKNSSYFVEWIPNNVKTAVCDIPPRGLKMAATFIGNSTAIQELFKRISEQFTAMFRRKAFLHWYTGEGMDEMEFTEAESNMNDLVSEYQQYQDATAEEGEFEEEAEEEVA
B2: 3xFlag-UBL3 (wild-type ubiquitin-like 3/membrane-anchored Ub-fold protein) [not stated] / ATXN10 [human (endogenous in MDA-MB-231)] (parent)
chain 1: B1 chain 1
chain 2: MAAPRPPPARLSGVMVPAPIQDLEALRALTALFKEQRNRETAPRTIFQRVLDILKKSSHAVELACRDPSQVENLASSLQLITECFRCLRNACIECSVNQNSIRNLDTIGVAVDLILLFRELRVEQESLLTAFRCGLQFLGNIASRNEDSQSIVWVHAFPELFLSCLNHPDKKIVAYSSMILFTSLNHERMKELEENLNIAIDVIDAYQKHPESEWPFLIITDLFLKSPELVQAMFPKLNNQERVTLLDLMIAKITSDEPLTKDDIPVFLRHAELIASTFVDQCKTVLKLASEEPPDDEEALATIRLLDVLCEMTVNTELLGYLQVFPGLLERVIDLLRVIHVAGKETTNIFSNCGCVRAEGDISNVANGFKSHLIRLIGNLCYKNKDNQDKVNELDGIPLILDNCNISDSNPFLTQWVIYAIRNLTEDNSQNQDLIAKMEEQGLADASLLKKVGFEVEKKGEKLILKSTRDTPKP

Variants of B1 are the subject of the first experiment. Nature of the experiment: Flag antibody-bead pull-down, on-bead digestion, LC-MS/MS label-free quantification. Particulars: with TUBB4A [human (endogenous in MDA-MB-231)]; lysates of MDA-MB-231 cells; triplicate pull-downs; read off a plot.
Regarding chain 1 MSSNVPADMINLRLILVSGKTKEFLFSPNDSASDIAKHVYDNWPMDWEEEQVSSPNILRLIYQGRFLHGNVTLGALKLPFGKTTVMHLVARETLPEPNSQGQRNREKTGESNAAVIL [chain 1 C113A C114A], the screen value stood at 3.2 log2.

Variants of B2 are the subject of the next experiment. The description is as above. Particulars: with ATXN10 [human (endogenous in MDA-MB-231)]; lysates of MDA-MB-231 cells; triplicate pull-downs; read off a plot.
Turning to chain 1 MSSNVPADMINLRLILVSGKTKEFLFSPNDSASDIAKHVYDNWPMDWEEEQVSSPNILRLIYQGRFLHGNVTLGALKLPFGKTTVMHLVARETLPEPNSQGQRNREKTGESNAAVIL [chain 1 C113A C114A], the screen value came out at 5.1 log2.

Values taken from PMC6158211.
